Measurements as given in patent publication US12065505B2, “Antibodies and antigen binding peptides for factor XIa inhibitors and uses thereof” (Bristol-Myers Squibb Company, priority 2021, dated 2024).

B1: 26D5-GVR-Q-FT-Fab-LONG mAb: IgG1f mAb called P1-072226, S31 in place of R31, i.e. 26D5-GV-Q (VH SEQ ID NO: 82, VL SEQ ID NO: 99) (antibody, V domains shown)
VH: EVQLVESGGGLIQPGGSLRLSCAASGFTVSSNYMSWVRQAPGKGLEWVSFIYSGGRTYYADSVKGRFTISRDNSKNTLYLQMNSLRAEDTAVYYCARGGFGGGDYWGQGTLVTVSS
VL: DIQMTQSPSSVSASVGDRVTITCRASQGISSWLAWYQQKPGKAPKLLIYAASSLQSGVPSRFSGSGSGTDFTLTISSLQPEDFATYYCQQANSFPLTFGGGTKVEIK
B2: 26D5-75203-343-B09-Fab-SHORT: antibody Fab fragment; VH SEQ ID NO: 54, VL SEQ ID NO: 87; sequence in Table 3 (antibody, V domains shown)
VH: EVQLVESGGGLIQPGGSLRLSCAASGFTVSSNAMSWVRQAPGKGLEWVSYIYPGGRTYYADSVKGRFTISRDNSKNTLYLQMNSLRAEDTAVYYCARAGFGGGDYWGQGTLVTVSS
VL: DIQMTQSPSSVSASVGDRVTITCRASQGISSNLAWYQQKPGKAPKLLIYAASTLQSGVPSRFSGSGSGTDFTLTISSLQPEDFATYYCQQANEFPLTFGGGTKVEIK
B3: 26D5-75229-343-A10-Fab-SHORT: antibody Fab fragment; VH SEQ ID NO: 52, VL SEQ ID NO: 84; sequence in Table 3 (antibody, V domains shown)
VH: EVQLVESGGGLIQPGGSLRLSCAASGFTVSSNAMSWVRQAPGKGLEWVSYIYPGGRTYYADSVKGRFTISRDNSKNTLYLQMNSLRAEDTAVYYCARAGFGGPDYWGQGTLVTVSS
VL: DIQMTQSPSSVSASVGDRVTITCRASQGISSNLAWYQQKPGKAPKLLIYAASSLQSGVPSRFSGSGSGTDFTLTISSLQPEDFATYYCQQANQFPLTFGGGTKVEIK
B4: 26D5-75768-348-A10-Fab-SHORT: antibody Fab fragment; VH SEQ ID NO: 56, VL SEQ ID NO: 89; sequence in Table 3 (antibody, V domains shown)
VH: EVQLVESGGGLIQPGGSLRLSCAASGFTVSSNAVSIVRQAPGKGLEWVAYIYPGGRTYYADSVKGRFTISRDNSKNTLYLQMNSLRAEDTAVYYCTIGGFGGGDYWGQGTLVTVSS
VL: DIQMTQSPSSVSASVGDRVTITCRASQGISSNNQWYQQKPGKAPKLLIYYASSLQSGVPSRFSGSGSGTDFTLTISSLQPEDFATYYCQQGNEFPLTFGGGTKVEIK
B5: 26D5-295-C08-Fab-SHORT: antibody Fab fragment; VH SEQ ID NO: 62, VL SEQ ID NO: 88; sequence in Table 3 (antibody, V domains shown)
VH: EVQLVESGGGLIQPGGSLRLSCAASGFQVSSNAMSWVRQAPGKGLEWVSFIYPGGRTYYADSVKGRFTISRDNSKNTLYLQMNSLRAEDTAVYYCARGGFGGGDYWGQGTLVTVSS
VL: DIQMTQSPSSVSASVGDRVTITCRASQGISSNLAWYQQKPGKAPKLLIYAASSLQSGVPSRFSGSGSGTDFTLTISSLQPEDFATYYCQQANSFPLTFGGGTKVEIK
B6: P1-072963: IgG1f mAb format of first round optimization progeny 26D5-295-B08; VH SEQ ID NO: 60, VL SEQ ID NO: 88 (antibody, V domains shown)
VH: EVQLVESGGGLIQPGGSLRLSCAASGFTVSSNAMSWVRQAPGKGLEWVSFIYPGGRTYYADSVKGRFTISRDNSKNTLYLQMNSLRAEDTAVYYCARAGFGGGDYWGQGTLVTVSS
VL: DIQMTQSPSSVSASVGDRVTITCRASQGISSNLAWYQQKPGKAPKLLIYAASSLQSGVPSRFSGSGSGTDFTLTISSLQPEDFATYYCQQANSFPLTFGGGTKVEIK
B7: 26D5-75202-343-A09-Fab-SHORT: antibody Fab fragment; VH SEQ ID NO: 54, VL SEQ ID NO: 86; sequence in Table 3 (antibody, V domains shown)
VH: EVQLVESGGGLIQPGGSLRLSCAASGFTVSSNAMSWVRQAPGKGLEWVSYIYPGGRTYYADSVKGRFTISRDNSKNTLYLQMNSLRAEDTAVYYCARAGFGGGDYWGQGTLVTVSS
VL: DIQMTQSPSSVSASVGDRVTITCRASQGIYSNLAWYQQKPGKAPKLLIYAASSLQSGVPSRFSGSGSGTDFTLTISSLQPEDFATYYCQQANEFPLTFGGGTKVEIK
B8: 26D5-75214-343-F06-Fab-SHORT: antibody Fab fragment; VH SEQ ID NO: 53, VL SEQ ID NO: 85; sequence in Table 3 (antibody, V domains shown)
VH: EVQLVESGGGLIQPGGSLRLSCAASGFTVSSNAMSWVRQAPGKGLEWVSFIYPGGRTYYADSVKGRFTISRDNSKNTLYLQMNSLRAEDTAVYYCARAGFGGPDYWGQGTLVTVSS
VL: DIQMTQSPSSVSASVGDRVTITCRASQGISSNLAWYQQKPGKAPKLLIYAASSLQSGVPSRFSGSGSGTDFTLTISSLQPEDFATYYCQQANEFPLTFGGGTKVEIK

Tests used:
[1] = Competitive TR-FRET assay, mAbs (T0 and T24); type: binding; conditions: 37° C.; difference between T0 and T24 IC50s; IgG1f mAb format
Protocol: A competitive TR-FRET (time-resolved fluorescence resonance energy transfer) assay was developed to rank-order the dissociation of α-Compound A mAbs from Compound A as equilibrium is reached at 37° C. The assay buffer was HBS-N (10 mM HEPES, 150 mM NaCl, pH 7.4; GE Healthcare), 0.1% (w/v) BSA (bovine serum albumin; Sigma), 2% DMSO (dimethyl sulfoxide; Sigma). All reagents were prepared in assay buffer and dispensed in equal volumes into white 384 microplates with final volume of 20 μl per well at the following final concentrations: 4 nM COMPOUND 5, the biotinylated analog of COMPOUND 2, a 100 0.1 nM 7-pt titration of human α-Compound A antibodies, 0.1 nM europium-labeled α-mouse IgG (LANCE Eu-W1024; PerkinElmer), 5 nM streptavidin-D2 (Cisbio), and 4 nM mAb 26D5 VH_A10G_Y33A_S53P_M89V_G95A; VK_W32N_H38Q (P1-075621, the second-round optimization parent 26D5-295-B08 formatted with mouse IgG Fc). COMPOUND 5 and α-Compound A antibody titrations were added first to the microplate, and were subjected to an initial incubation at 37° C., 1000 rpm, for one hour to facilitate antibody binding to the compound. After the initial incubation period, the europium α-mouse IgG, streptavidin-D2, and 26D5-mouse IgG (P1-075621) were added sequentially, then the plate was returned to 37° C., 1000 rpm incubation. Microplates were read using a Perkin Elmer EnVision plate reader, and the measured FRET signal was defined as [665 nm]/[620 nm]*10,000. Microplates were read at 30 minutes (T0) and after 24 hour (T24) intervals. […]

[2] = Thermal stability by Differential Scanning Calorimetry; type: physicochemical; conditions: DSC; Fab 1 mg/ml
Protocol: Thermal stability analysis was performed with UNchained Labs UNcle™/Tagg analysis with Fabs at a concentration of 20 uM with or without Compound A at a concentration of 50 uM (or control compound). Capillaries were scanned from 25 to 90° C. at 0.5° C./min. In addition, select Fabs were also analyzed by Differential Scanning calorimetry analysis using the Malvern MicroCal VP-Capillary DSC. Samples were buffer matched and loaded with Fabs at a concentration of 10 uM with or without Compound A at a concentration of 15 uM (or control compound). Scan temperature range was 15-110° C. at a rate of 60° C./Hr (Filter period: 16 sec, Gain: None). Sample analysis was using software provided by the manufacturer for both the UNcle and the Malvern Capillary DSC. FIG. 15 and Table 14 below show representative DSC results.

[3] = Kinetic Exclusion Assay (KinExA) solution affinity; type: binding; conditions: for KinExA Ka: complex association rate, 200 pM Fab and 400 pM Compound A; for Kd: solution affinity for Compound A, Fab 100, 200, 300 pM, equilibrated 24-72 hours
Protocol: The solution affinity of the antibody Fab fragments disclosed herein for Compound A was measured using a Kinetic Exclusion Assay (KinExA). […] The relative unbound concentration of 26D5 affinity matured antibody Fab fragment was measured by capture on a streptavidin coated bead with COMPOUND 5 followed by detection with a fluorescently labeled antibody that recognizes the human IgG Fab. Kinetic analysis to determine the complex association rate was measured with the same assay format except that a single tube of the mixture was prepared (200 pM Fab and 400 pM Compound A) and time points were removed immediately (no equilibration). Two Fabs, 26D5-75229-343-A10-Fab-SHORT and 26D5-75616-348-F10-Fab-SHORT, were identified as the top two Fabs by DSC thermal stability and KinExA analysis. Antibody Fab fragment 26D5-75616-348-F10-Fab-SHORT (SEQ ID NO: 106 and SEQ ID NO: 164; see Table 3) was selected for X-ray crystallography as described below and in vivo studies as described in Example 12.

Molecule	T0-T24 IC50 shift (Δ) [1] [nM]	Tm1 (° C.) [2] [°C]	KinExA Ka [3] [M⁻¹ s⁻¹]	Kd [3] [nM]	Tm2 (° C.) [2] [°C]
B1	63	–	–	–	–
B2	–	76.6	14000	0.01	–
B3	–	74.9	50000	–	–
B4	–	66.3	–	–	74.1
B5	–	75.3	–	–	–
B6	20.5	–	–	–	–
B7	–	75.3	150000	0.019	–
B8	–	75.5	600000	0.015	–
